Measured values reported in patent US20190352387A1 (Chugai, published 2019).
Changes are numbered by the printed parent chain.

Key:
[1] = target: T1, Recombinant mouse sclerostin (mouse, UniProt Q99P68 24-211); assay: cell-based or functional assay
T1 sequence: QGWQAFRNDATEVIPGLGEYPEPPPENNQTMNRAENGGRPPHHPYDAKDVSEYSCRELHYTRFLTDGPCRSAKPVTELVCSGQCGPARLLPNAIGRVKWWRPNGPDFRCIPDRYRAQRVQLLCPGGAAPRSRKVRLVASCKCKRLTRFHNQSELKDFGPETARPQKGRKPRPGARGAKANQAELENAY

[2] = target: T1, Recombinant mouse sclerostin; assay: cell-based or functional assay; remark: listed apart in the source
[3] = target: T2, Recombinant human sclerostin (human, UniProt Q9BQB4 24-213); assay: SPR; captured antibody (SG1/SK1 constant regions), recombinant human SOST as analyte; response normalised by the capture level of the antibody [panel B-A-B]
T2 construct: Whole entry as named; Secreted recombinant protein purified from FreeStyle293-F conditioned medium; also called human-SOST; Human SOST
T2 sequence: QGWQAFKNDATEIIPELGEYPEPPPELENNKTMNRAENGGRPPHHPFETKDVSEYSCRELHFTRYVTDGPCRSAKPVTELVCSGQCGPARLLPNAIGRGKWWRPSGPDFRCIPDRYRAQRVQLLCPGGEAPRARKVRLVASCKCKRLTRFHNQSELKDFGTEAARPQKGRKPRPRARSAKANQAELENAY

[4] = target: T3, Recombinant cynomolgus monkey sclerostin (cynomolgus monkey, UniProt Q9BG78 24-213 (Chlorocebus aethiops entry)); assay: cell-based or functional assay
T3 chain: T2 sequence with P70Q, E129A, T161P, S178G

[5] = target: T2, Recombinant human sclerostin; assay: SPR; captured antibody (SG1/SK1 constant regions), recombinant human SOST as analyte; response normalised by the capture level of the antibody [panel A-A-B]
[6] = target: T2, Recombinant human sclerostin; assay: SPR; captured antibody, recombinant human SOST as analyte; response normalised by the capture level of the antibody [panel abL081]
[7] = target: T2, Recombinant human sclerostin; assay: SPR; captured antibody, recombinant human SOST as analyte; response normalised by the capture level of the antibody [panel abL083]
[8] = target: T2, Recombinant human sclerostin; assay: SPR; captured antibody (SG1/SK1 constant regions), recombinant human SOST as analyte; response normalised by the capture level of the antibody [panel A-B-B]
[9] = target: T2, Recombinant human sclerostin; assay: SPR; captured antibody (SG1/SK1 constant regions), recombinant human SOST as analyte; response normalised by the capture level of the antibody [panel B-B-A]
[10] = target: T2, Recombinant human sclerostin; assay: SPR; captured antibody, recombinant human SOST as analyte; response normalised by the capture level of the antibody [panel abL063]
[11] = target: T2, Recombinant human sclerostin; assay: SPR (Biacore), dissociation at pH 5.8 of complex formed at pH 7.4
Protocol: (§1) The affinity of anti-sclerostin variants binding to human, cynomolgus monkey (cyno), rat, or mouse sclerostin at pH 7.4 and pH 5.8 were determined at 37 degrees C. using Biacore T200 instrument (GE Healthcare). Anti-human Fc (GE Healthcare) was immobilized onto all flow cells of a CM4 sensor chip using amine coupling kit (GE Healthcare). All antibodies and analytes were prepared in ACES pH7.4 or pH 5.8 buffer containing 20 mM ACES, 150 mM NaCl, 1.2 mM CaCl₂, 0.05% Tween 20, 0.005% NaN₃. Each antibody was captured onto the sensor surface by anti-human Fc. […] Sensor surface was regenerated each cycle with 3M MgCl₂.
(§2) The pH dependent interaction assessment was determined by a modified Biacore assay. Briefly, an additional dissociation phase at pH5.8 was integrated into the Biacore assay immediately after dissociation phase at pH7.4. This is to assess the pH-dependent dissociation between antibody and antigen from the complexes formed at pH7.4. The dissociation rate at pH5.8 buffer was determined by processing and fitting data using Scrubber 2.0 (BioLogic Software) curve fitting software.

[12] = target: T4, Recombinant rat sclerostin (rat, UniProt Q99P67 29-213); assay: SPR (Biacore T200), 37 C, dissociation at pH 5.8 of complex formed at pH 7.4
T4 construct: Whole entry as named; also called rat-SOST
T4 sequence: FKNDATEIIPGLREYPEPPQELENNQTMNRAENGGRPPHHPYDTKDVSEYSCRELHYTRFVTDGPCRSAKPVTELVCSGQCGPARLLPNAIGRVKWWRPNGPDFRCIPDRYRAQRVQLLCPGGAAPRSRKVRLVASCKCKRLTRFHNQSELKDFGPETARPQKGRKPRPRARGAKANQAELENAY
Protocol: as §1, §2

[13] = target: T1, Recombinant mouse sclerostin; assay: as above
Protocol: as §1, §2

[14] = target: T2, Recombinant human sclerostin; assay: cell-based or functional assay
[15] = target: T2, Recombinant human sclerostin; assay: SPR (Biacore T200), 37 C, dissociation at pH 5.8 of complex formed at pH 7.4
Protocol: as §1, §2

[16] = target: T3, Recombinant cynomolgus monkey sclerostin; assay: as above
Protocol: as §1, §2

B1: mabB//mabA_pH2-BS01 (bispecific antibody, human IgG1, kappa)
heavy 1: QVQLVQSGAEVKKPGASVKVSCKVSGFPIKHHFQHWVRQAPGKGLEWMGWSDPEIGDTEYASKFQGRVTMTEDTSTDTAYMELSSLRSEDTAVYYCATGHTTYKFDFWGQGTTVTVSSASTKGPSVFPLAPSSRSTSESTAALGCLVKDYFPEPVTVSWNSGALTSGVHTFPAVLQSSGLYSLSSVVTVPSSSLGTKTYTCNVDHKPSNTKVDKRVEPKSCDKTHTCPPCPAPELLGGPSVFLFPPKPKDTLMISRTPEVTCVVVDVSQEDPEVQFNWYVDGVEVHNAKTKPREEQFNSTYRVVSVLTVLHQDWLNGKEYKCKVSNKGLPSSIEKTISKAKGQPREPQVYTLPPSREEMTKNQVSLTCLVKGFYPSDIAVEWESNGQPENNYKTTPPYLDSDGSFFLYSKLTVDKSRWQQGNVFSCSVMHEALHNHYTQESLSLSP
light 1: DIQMTQSPSSLSASVGDRVTITCKASQDVHTAVAWYQQKPGKAPKLLIYWASTRWTGVPSRFSGSGSGTDFTLTISSLQPEDFATYYCQQYSDYHWTFGGGTKVEIKRTVAAPSVFIFPPSDEQLKSGTASVVCLLNNFYPREAKVQWKVDNALQSGNSQESVTEQDSKDSTYSLSSTLTLSKADYEKHKVYACEVTHQGLSSPVTKSFNRGEC
heavy 2: EVQLVQSGAEVKKPGASVKVSCKASGYTFTDYNMHWVRQAPGQGLEWMGEINPHSGHAGYNQKFKGRVTMTTDTSTSTAYMELRSLRSDDTAVYYCARLHYDDIHDDWYFDVWGQGTTVTVSSASTKGPSVFPLAPSSRSTSESTAALGCLVKDYFPEPVTVSWNSGALTSGVHTFPAVLQSSGLYSLSSVVTVPSSSLGTKTYTCNVDHKPSNTKVDKRVEPKSCDKTHTCPPCPAPELLGGPSVFLFPPKPKDTLMISRTPEVTCVVVDVSQEDPEVQFNWYVDGVEVHNAKTKPREEQFNSTYRVVSVLTVLHQDWLNGKEYKCKVSNKGLPSSIEKTISKAKGQPREPQVYTLPPSRKEMTKNQVSLTCLVKGFYPSDIAVEWESNGQPENNYKTTPPYLDSDGSFFLYSKLTVDKSRWQQGNVFSCSVMHEALHNHYTQKSLSLSP
light 2: not shown
- MFI of pHrodo-Red-labelled mouse sclerostin taken up into MDCK cells expressing human Fc gamma receptor IIB and human FcRn (flow cytometry) [1]: 1960 MFI
- IC50 (read off the curve); Wnt1-induced TCF/LEF luciferase reporter in HEK293T cells, % Inhibition of mouse SOST [2]: ~9 µg/mL

B2: mabB heavy chain combined with light chain variant B-A-B (antibody, human IgG1, kappa, V domains shown)
VH: QVQLVQSGAEVKKPGASVKVSCKVSGFPIKDTFQHWVRQAPGKGLEWMGWSDPEIGDTEYASKFQGRVTMTEDTSTDTAYMELSSLRSEDTAVYYCATGDTTYKFDFWGQGTTVTVSS
VL: DIQMTQSPSSLSASVGDRVTITCKASQDVHTAVAWYQQKPGKAPKLLIYYTSRLLSGVPSRFSGSGSGTDFTLTISSLQPEDFATYYCQQYSDYPWTFGGGTKVEIKR
notes: also called B-A-B with the mabB heavy chain
- binding result [3]: binds

B3: mabA-hG2 (antibody, human IgG2, kappa, V domains shown)
VH: EVQLVQSGAEVKKPGASVKVSCKASGYTFTDYNMHWVRQAPGQGLEWMGEINPNSGGAGYNQKFKGRVTMTTDTSTSTAYMELRSLRSDDTAVYYCARLGYDDIYDDWYFDVWGQGTTVTVSS
VL: DIQMTQSPSSLSASVGDRVTITCRASQDISNYLNWYQQKPGKAPKLLIYYTSRLLSGVPSRFSGSGSGTDFTLTISSLQPEDFATYYCQQGDTLPYTFGGGTKVEIKR
- IC50 (read off the curve); Wnt1-induced TCF/LEF luciferase reporter in HEK293T cells, % Inhibition of monkey SOST [4]: ~4 µg/mL

B4: mabA heavy chain combined with light chain variant A-A-B (antibody, human IgG1, kappa, V domains shown)
VH: B3 VH
VL: B3 VL with G91Y, D92S, T93D, L94Y, Y96W
notes: also called A-A-B with the mabA heavy chain
- binding result [5]: no binding

B5: mabB heavy chain combined with light chain variant abL081 (antibody, human IgG1, kappa, V domains shown)
VH: B2 VH
VL: B3 VL with S30H, N31T, N34A, Y50W, T51A, R53T, L54R, L55W
notes: also called abL081 with the mabB heavy chain
- binding result [6]: binds

B6: mabB heavy chain combined with light chain variant A-A-B (antibody, human IgG1, kappa, V domains shown)
VH: B2 VH
VL: B3 VL with G91Y, D92S, T93D, L94Y, Y96W
notes: also called A-A-B with the mabB heavy chain
- binding result [5]: binds

B7: mabB heavy chain combined with light chain variant abL083 (antibody, human IgG1, kappa, V domains shown)
VH: B2 VH
VL: B3 VL with S30H, N31T, N34A, Y50W, T51A, R53T, L54R
notes: also called abL083 with the mabB heavy chain
- binding result [7]: binds

B8: mabB heavy chain combined with light chain variant A-B-B (antibody, human IgG1, kappa, V domains shown)
VH: B2 VH
VL: DIQMTQSPSSLSASVGDRVTITCRASQDISNYLNWYQQKPGKAPKLLIYWASTRWTGVPSRFSGSGSGTDFTLTISSLQPEDFATYYCQQYSDYPWTFGGGTKVEIKR
notes: also called A-B-B with the mabB heavy chain
- binding result [8]: binds

B9: mabB heavy chain combined with light chain variant B-B-A (antibody, human IgG1, kappa, V domains shown)
VH: B2 VH
VL: DIQMTQSPSSLSASVGDRVTITCKASQDVHTAVAWYQQKPGKAPKLLIYWASTRWTGVPSRFSGSGSGTDFTLTISSLQPEDFATYYCQQGDTLPYTFGGGTKVEIKR
notes: also called B-B-A with the mabB heavy chain
- binding result [9]: binds

B10: mabB heavy chain combined with light chain variant abL063 (antibody, human IgG1, kappa, V domains shown)
VH: B2 VH
VL: B9 VL with K24R, V29I, H30S, V33L, R54L, T56S
notes: also called abL063 with the mabB heavy chain
- binding result [10]: binds

B11: amH848/bsH638/abL152 (bispecific antibody)
heavy 1: not shown
heavy 2: not shown
VL: DIQMTQSPSSLSASVGDRVTITCRASEGIHDALAWYQQKPGKAPKLLIYWASTLESGVPSRFSGSGSGTDFTLTISSLQPEDFATYYCQQGDTLPYTFGGGTKVEIK
notes: Biparatopic, common light chain
- koff [11]: 0.1 s⁻¹

B12: mabA_pH2 (antibody, V domains shown)
VH: B3 VH with G57H, G100H, D103H
VL: B11 VL with E27H, G28D, H30S, D31N, A32Y, A34N, W50Y, A51T, T53R, E55L
- koff [12]: 0.00486 s⁻¹
- koff [13]: 0.00805 s⁻¹

B13: amH852/bsH638/abL152 (bispecific antibody)
heavy 1: not shown
heavy 2: not shown
VL: B11 VL
notes: as for B11
- koff [11]: 0.028 s⁻¹
- IC50 (read off the curve); Wnt1-induced TCF/LEF luciferase reporter in HEK293T cells, % Inhibition of human SOST [14]: ~10 µg/mL

B14: mabA_NpH1 (antibody, V domains shown)
VH: B3 VH with D111H
VL: B11 VL with E27Q, G28D, H30S, D31N, A32Y, A34N, W50H, A51T, T53R, E55L
- koff [15]: 0.00214 s⁻¹
- koff [12]: 0.000805 s⁻¹
- koff [13]: 0.00191 s⁻¹
- koff [16]: 0.00182 s⁻¹

B15: amH852/bsH656/abL152 (bispecific antibody)
heavy 1: not shown
heavy 2: not shown
VL: B11 VL
- IC50 (read off the curve); Wnt1-induced TCF/LEF luciferase reporter in HEK293T cells, % Inhibition of human SOST [14]: ~10 µg/mL
